This note sets out measurements from patent US12410262B2, “Peptide conjugates of cytotoxins as therapeutics” (Cybrexa 2, Inc., priority 2019, dated 2025).

Data set [1] is described as follows: Gastric toxicity study in a mouse model. In kind it is in vivo, athymic nude Foxn^nu mice. Particulars: 5.2 μmoles/kg (20 mg/kg) IP once daily for 4 days. As to the method:
Six-week-old female athymic nude Foxn^nu mice were obtained from Taconic Labs (Cat #NCRNU-F) and were housed 5 per cage on Alpha-Dri bedding in a disposable caging system (Innovive). Human HCT116 cells derived from colorectal carcinoma were diluted 1:1 in Phenol Red-free Matrigel and subcutaneously implanted into the left flank of each mouse at a density of 2.5×10^6 cells in 100 μL. When xenografts reached a minimal volume of 300 mm^3, mice were administered intraperitoneal doses of vehicle, or 5.2 μmoles/kg of either unconjugated exatecan (equivalent to 2.3 mg/kg exatecan) or Compound 11 (equivalent to 20 mg/kg Compound 11). Compounds were administered once daily for 4 days. At 6 hours after administration of the last dose, mice were euthanized by cervical dislocation and gross necropsy was conducted. Photographs were taken of the stomachs both in situ and ex vivo.

Data set [2] is described as follows: Plasma stability studies. It is filed as in vitro ADME. Particulars: rat plasma, 100 μM conjugate, 37° C. Put shortly:
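Conjugate at 100 μM final in rat plasma (diluted from DMSO stock via 100 mM Tris, pH 7.5), incubated at 37° C for up to 24 h, sampled at 0, 4 and 24 h. Samples acid/acetonitrile-extracted and analysed by HPLC; remaining conjugate expressed as peak area relative to time 0 ×100.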

For data set [3], the system named is HCT116. Kind of data set: cells. In kind it is cell-based, human. Particulars: 96 h. Put shortly:
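DLD-1 WT (2500/well), FaDu and HeLa (5000/well) and HCT116 (3000/well) were grown in 10% FBS media and dosed in triplicate 24 h after plating. After 96 h of drug exposure at 37 °C, cells were fixed, Hoechst-stained and counted by imaging; percent growth delay was calculated versus untreated controls.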

The nature of data set [4]: Bone marrow toxicity study in a mouse model. It is filed as in vivo, athymic nude Foxn^nu mice. The settings on record: 2.6 and 5.2 μmoles/kg (10, 20 mg/kg) IP once daily for 4 days. As to the method: Six-week-old female athymic nude Foxn^nu mice were obtained from Taconic Labs (Cat #NCRNU-F) and were housed 5 per cage on Alpha-Dri bedding in a disposable caging system (Innovive). Human HCT116 cancer cells derived from colorectal carcinoma were diluted 1:1 in Phenol Red-free Matrigel and subcutaneously implanted into the left flank of each mouse at a density of 2.5×10^6 cells in 100 μL. When xenografts reached a minimal volume of 200 mm^3, mice were administered intraperitoneal doses of vehicle or 2.6 or 5.2 μmoles/kg of either unconjugated exatecan (equivalent to 1.15 or 2.3 mg/kg exatecan, respectively) or Compound 11 (equivalent to 10 or 20 mg/kg Compound 11, respectively). Compounds were administered once daily for 4 days.
Tumor bearing mice were euthanized by cervical dislocation 6 hours after the last dose. Femurs were removed, and bone marrow was extruded into 50 mL conical tubes by flushing the bones with a 23-gauge needle fitted on a 5 cc syringe containing PBS+2% fetal bovine serum. Bone marrow was homogenized by gentle pipetting and filtered through 100 μm nylon mesh filters and cells were pelleted by centrifugation at 1200 rpm for 5 minutes at 4° C. Red blood cells were lysed with 3 mL of lysis buffer for 2 minutes at room temperature. […] Cell pellets were suspended in 5 mL of PBS and cell count was assessed by trypan blue exclusion. […]

Broadly, the IC50 is the concentration at which inhibition is half-maximal. Low readings indicate higher potency, high ones lower potency. Take `CC[C@@]1(O)C(=O)OCc2c1cc1n(c2=O)Cc2c-1nc1cc(F)c(C)c3c1c2[C@@H](NC(=O)O[C@H]1CCCC[C@@H]1SSC[C@H](NC(=O)[C@H](Cc1c[nH]c2ccccc12)NC(=O)[C@H](CC(C)C)NC(=O)[C@H](CC(C)C)NC(=O)[C@H](CC(=O)O)NC(=O)[C@H](CC(C)C)NC(=O)[C@H](CC(C)C)NC(=O)[C@H](CC(C)C)NC(=O)[C@@H](NC(=O)[C@H](CC(=O)O)NC(=O)[C@@H](NC(=O)[C@@H]1CCCN1C(=O)[C@H](Cc1ccccc1)NC(=O)[C@H](CC(C)C)NC(=O)[C@H](CC(C)C)NC(=O)[C@H](CC(=O)O)NC(=O)[C@H](CC(C)C)NC(=O)[C@H](Cc1ccc(O)cc1)NC(=O)[C@H](C)NC(=O)[C@H](CCCNC(=N)N)NC(=O)[C@H](Cc1c[nH]c2ccccc12)NC(=O)[C@@H]1CCCN1C(=O)[C@H](CC(N)=O)NC(=O)[C@H](CCC(N)=O)NC(=O)[C@H](CC(=O)O)NC(=O)[C@H](CC(=O)O)NC(=O)[C@H](C)N)[C@@H](C)O)[C@@H](C)O)C(=O)NCC(=O)O)CC3` [Compound 11]: the “gastric toxicity (stomachs in situ and ex vivo)” value in data set [1] is recorded as “did not display the gastric toxicity”. The fraction remaining at 4 h, 100 µM in data set [2] (4 hrs) was 108%. Besides, in data set [2] (24 hrs), the amount remaining at 24 h, 100 µM turned out to be 107%. The midpoint of inhibition in data set [3], the IC50, lay at 22.6 nM. In data set [4], the “bone marrow toxicity (total bone marrow counts from femurs)” value is recorded as “did not display the bone marrow toxicity”.
